Source: PMC6992781 (Nature Communications, 2020)

Target: full-length RABV G (isolate 8743THA) (Rabies lyssavirus, isolate 8743THA, UniProt B2XY12, strain)
Assay: flow cytometry on cells
Conditions: one partner purified

B1: RVC20 (human broadly neutralizing monoclonal antibody, recombinant IgG1/kappa) (antibody, V domains shown)
VH: QVQLQESGPGLVKPSQTLSLTCTVSGGSFSSGSYSWNWIRQHPGKGLEWIGYIYYSGSTYYNPSLKSRVTMSVHTSKNQFSLKLNSITAADTAVYYCARGTYSDFWSGSPLDYWGQGTLVTVSS
VL: DIQMTQSPSSLSASVGDRVTITCRASQGISNYLAWFQQKPGKAPKSLIYAASSLQSGVPSRFSGSGSGTDFTLTINSLQPEDFVTYFCQQYDTYPLTFGGGTKVEIK
binding result: binds
